T1: PTHR1 on CHO-K1/Ga15/PTHR1 cells (UniProt Q03431 27-593, limits assumed)
T1 sequence (looked up): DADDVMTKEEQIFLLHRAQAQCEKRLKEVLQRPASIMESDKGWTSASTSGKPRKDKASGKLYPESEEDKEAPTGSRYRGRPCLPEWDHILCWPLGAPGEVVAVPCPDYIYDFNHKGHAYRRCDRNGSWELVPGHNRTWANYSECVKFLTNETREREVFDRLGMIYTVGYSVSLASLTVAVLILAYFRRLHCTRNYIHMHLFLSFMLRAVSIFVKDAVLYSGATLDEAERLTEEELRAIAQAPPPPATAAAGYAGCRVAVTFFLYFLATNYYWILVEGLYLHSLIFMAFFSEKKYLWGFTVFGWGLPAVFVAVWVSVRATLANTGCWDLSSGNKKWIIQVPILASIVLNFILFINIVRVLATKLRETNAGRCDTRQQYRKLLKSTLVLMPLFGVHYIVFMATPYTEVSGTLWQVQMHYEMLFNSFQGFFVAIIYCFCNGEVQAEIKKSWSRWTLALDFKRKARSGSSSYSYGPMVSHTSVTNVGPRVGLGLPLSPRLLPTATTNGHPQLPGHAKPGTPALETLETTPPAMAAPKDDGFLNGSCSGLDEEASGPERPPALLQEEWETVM

T2: Flag-PTHR1-YFP (UniProt Q03431 27-593)
T2 sequence (looked up): T1 sequence (looked up)


Each molecule was assayed against Flag-PTHR1-YFP (parathyroid hormone receptor 1) expressed in transfected HEK293T cells (human) (UniProt Q03431) (assay: cell-based or functional assay).

arrestin 1, plate 25: -log10EC50 | arrestin 1, plate 25: Emax | arrestin 2, plate 26: -log10EC50 | arrestin 2, plate 26: Emax | Molecule
-6.98 -log10EC50 | 7.68 | -7.33 -log10EC50 | 8.04 | PTH 7-36 antago (peptide)

What follows are molecules tested against T1, PTHR1 on CHO-K1/Ga15/PTHR1 cells (assay: cell-based or functional assay).

Molecule | cAMP accumulation (HTRF): -log10EC50 | cAMP accumulation (HTRF): Emax
AVAEIQLMHQRAKWGVELQLKVDLRRILEDVY [R2-35] | -8.01 -log10EC50 (as headed) | 97%
AVAEIQLMHQRAKWEIQEIGIKITLELLKEYI [R2-37] | -9.09 -log10EC50 (as headed) | 96.4%
AVAEIQLMHQRAKWRLEIELLKKLKEILKDVY [R2-34] | -6.98 -log10EC50 (as headed) | 96.1%
AVAEIQLMHQRAKWKLELELKAFLDQILKDVL [R2-36] | -8.32 -log10EC50 (as headed) | 99%
VDFEIQLMQQRAQWIADYRIREFLDKLIAEIF [R1-94] | -10.1 -log10EC50 (as headed) | 90.8%
AVAEIQLMHQRAKWRAEYELREMLLRLLEEIF [R1-96] | -8.01 -log10EC50 (as headed) | 99.7%
AVAEIQLMHQRAKWDLLIELVKLLHELLKEYI [R2-40] | -11.2 -log10EC50 (as headed) | 95.1%
AVAEIQLMHQRAKWELEYELFEMFLKLLEEIF [I1 (R1-100)] | -7.28 -log10EC50 (as headed) | 99.9%

Results, then the molecule that gave them:

cAMP accumulation (HTRF): -log10EC50 | cAMP accumulation (HTRF): Emax | Molecule
-7.19 -log10EC50 (as headed) | 98.8% | AVAEIQLMHQRAKWKILEELLKILIDLLKQYI [R2-48]
-9.23 -log10EC50 (as headed) | 102% | AVAEIQLMHQRAKWDVLIELAKLLAELLRRYH [R2-47]
-7.23 -log10EC50 (as headed) | 99.3% | AVAEIQLMHQRAKWELEFELFREFLKLLVDFF [I3 (R1-97)]
-10.4 -log10EC50 (as headed) | 106% | AVAEIQLMHQRAKWSLREELEKLLKELLKEYI [R2-44]
-6.54 -log10EC50 (as headed) | 97.6% | AVAEIQLMHQRAKWAIQEIGIKITRELLERYL [R2-42]
-11.1 -log10EC50 (as headed) | 729% | AVAEIQLMHQRAKWGLEIELLKLLLSLLKEYI [R2-45]
-6.24 -log10EC50 (as headed) | 99.8% | GVAMLQIMHDLAKIKQELELKDSMKKILEDVL [R2-50]
-10.5 -log10EC50 (as headed) | 309% | AVAEIQLMHQRAKWELQEIGIAITLRLLARYI [R2-43]

What follows are molecules tested against T2, Flag-PTHR1-YFP (assay: cell-based or functional assay).

Molecule | arrestin 2 recruitment (BRET): -log10EC50 | arrestin 2 recruitment (BRET): Emax
AVAEIQLMHQRAKWGVELQLKVDLRRILEDVY [R2-35] | -3.46 -log10EC50 (as headed) | 35.8
AVAEIQLMHQRAKWEIQEIGIKITLELLKEYI [R2-37] | -5.86 -log10EC50 (as headed) | 17
AVAEIQLMHQRAKWELQEIGIKITLDLLEAYL [R2-39] | -7.7 -log10EC50 (as headed) | 6.88
AVAEIQLMHQRAKWRLEIELLKKLKEILKDVY [R2-34] | -8.41 -log10EC50 (as headed) | 7.61
AVAEIQLMHQRAKWKLELELKAFLDQILKDVL [R2-36] | -8.7 -log10EC50 (as headed) | 7.53
AVAEIQLMHQRAKWDLLIELVKLLHELLKEYI [R2-40] | -5.85 -log10EC50 (as headed) | 13.9

Further lines, results first:

arrestin 2 recruitment (BRET): -log10EC50 | arrestin 2 recruitment (BRET): Emax | Molecule
-15.2 -log10EC50 (as headed) | 6.42 | AVAEIQLMHQRAKWKILEELLKILIDLLKQYI [R2-48]
-5.77 -log10EC50 (as headed) | 15.2 | AVAEIQLMHQRAKWDVLIELAKLLAELLRRYH [R2-47]
-8.46 -log10EC50 (as headed) | 7.63 | AVAEIQLMHQRAKWSLREELEKLLKELLKEYI [R2-44]
-8.37 -log10EC50 (as headed) | 7.53 | AVAEIQLMHQRAKWAIQEIGIKITRELLERYL [R2-42]
-5.76 -log10EC50 (as headed) | 16.1 | AVAEIQLMHQRAKWGLEIELLKLLLSLLKEYI [R2-45]
-10.5 -log10EC50 (as headed) | 6.45 | GVAMLQIMHDLAKIKQELELKDSMKKILEDVL [R2-50]
-8.03 -log10EC50 (as headed) | 7.45 | AVAEIQLMHQRAKWELQEIGIAITLRLLARYI [R2-43]
-6.73 -log10EC50 (as headed) | 8.34 | AVAEIQLMHQRAKWSILEELLKILTALLDEYI [R2-46]

— patent US20220298217A1 (FLAGSHIP PIONEERING INNOVATIONS VI, published 2022)
